Assay results as given in article PMC9376891 (Nature Communications, 2022).

Target: SARS-CoV-2 ORF6 C3 + YP (SARS-CoV-2 | SARS-CoV)
Experiment: ITC
Details: both partners purified

Chain of SARS-CoV-2 ORF6 C3 + YP (SARS-CoV-2 | SARS-CoV) (P52948 157-213): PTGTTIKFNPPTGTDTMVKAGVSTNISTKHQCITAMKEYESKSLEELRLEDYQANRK

B1: Rae1(31-368)-Nup98(157-213) heterodimer (complex)
chain 1: DIEVTSSPDDSIGCLSFSPPTLPGNFLIAGSWANDVRCWEVQDSGQTIPKAQQMHTGPVLDVCWSDDGSKVFTASCDKTAKMWDLSSNQAIQIAQHDAPVKTIHWIKAPNYSCVMTGSWDKTLKFWDTRSSNPMMVLQLPERCYCADVIYPMAVVATAERGLIVYQLENQPSEFRRIESPLKHQHRCVAIFKDKQNKPTGFALGSIEGRVAIHYINPPNPAKDNFTFKCHRSNGTNTSAPQDIYAVNGIAFHPVHGTLATVGSDGRFSFWDKDARTKLKTSEQLDQPISACCFNHNGNIFAYASSYDWSKGHEFYNPQKKNYIFLRNAAEELKPRNKK
chain 2: not shown
notes: also called Rae1-Nup98; Rae1-Nup98 complex
Kd: 200 nM
